Measurements from patent US20220242962A1 (APTEVO RESEARCH AND DEVELOPMENT, published 2022).

Legend:
[1] = target: Full-length Human 4-1BB (human, UniProt Q07011 24-255); assay: cell-based or functional assay
[2] = target: T1, Full-length Human OX40 (human, UniProt P43489 29-277); assay: cell-based or functional assay
T1 sequence: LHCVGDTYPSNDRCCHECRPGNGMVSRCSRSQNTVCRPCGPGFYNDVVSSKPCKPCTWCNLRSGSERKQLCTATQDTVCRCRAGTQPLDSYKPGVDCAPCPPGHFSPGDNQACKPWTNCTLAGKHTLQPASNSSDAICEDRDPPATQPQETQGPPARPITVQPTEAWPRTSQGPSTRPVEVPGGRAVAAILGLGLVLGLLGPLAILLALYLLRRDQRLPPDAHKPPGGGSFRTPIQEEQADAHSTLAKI

[3] = target: T2, Human 4-1BB ECD-AFH (human); assay: SPR (Biacore 8K), construct captured, monovalent ECD
T2 construct: entry includes the tags; also called FOB003; HUMAN CD137 ECD-AVI-FLAG-HIS

[4] = target: T3, Full-length Cyno OX40 (cynomolgus monkey, UniProt P43489 29-277 (human entry)); assay: flow cytometry on CHOK1SV cells transfected with cynomolgus OX40, goat anti-human Fc secondary antibody, MFI (Mean)
T3 construct: on CHO-K1SV cells; also called OXF004; cynomolgus OX40
T3 chain: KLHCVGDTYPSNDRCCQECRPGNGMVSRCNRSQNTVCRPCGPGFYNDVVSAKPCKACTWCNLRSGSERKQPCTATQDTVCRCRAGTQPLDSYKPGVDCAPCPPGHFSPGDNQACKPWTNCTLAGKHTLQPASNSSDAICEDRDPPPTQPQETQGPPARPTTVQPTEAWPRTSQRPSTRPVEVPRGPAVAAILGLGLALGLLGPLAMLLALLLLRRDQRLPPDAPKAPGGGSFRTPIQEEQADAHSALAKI
Method: Serial dilutions of ADAPTIR™ constructs were incubated with transfected target cells and subsequently labelled with a fluorescently-conjugated goat-a-human Fc secondary antibody. […] (See Example 25.)

[5] = target: T4, Fc gamma receptor RIIA R167 (human, UniProt P12318 36-218); assay: SPR, construct immobilized, receptor injected at 2 uM
T4 construct: soluble SPR analyte
T4 sequence (looked up): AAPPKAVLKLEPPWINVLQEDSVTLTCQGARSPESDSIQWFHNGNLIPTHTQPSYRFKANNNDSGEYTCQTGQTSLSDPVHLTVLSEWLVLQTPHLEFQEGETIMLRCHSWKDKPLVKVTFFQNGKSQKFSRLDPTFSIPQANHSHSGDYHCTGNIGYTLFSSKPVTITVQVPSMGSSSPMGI
Method: (§1) Fcγ receptor binding to bispecific proteins was measured by Surface Plasmon Resonance on a Biacore 8K instrument at room temperature. Bispecific proteins with modified Fc regions to reduce binding to Fcγ receptors were directly immobilized on the surface of a CM5 sensor chip to a surface density of 4000 RU. A bispecific ADAPTIR™ protein with a wild type Fc was similarly immobilized to the surface as a positive control and used as a comparator to evaluate the reduction in binding resulting from changes incorporated into the Fc region amino acid sequence. Fcγ receptors (purchased from R&D Systems) were diluted to either 100 nM (FcγRI) or 2 μM (all other Fcγ receptors) in HBS-EP+ buffer before injecting over the surface of the prepared sensor chip at 30 μL/min for 60 seconds. Maximum RU values during association phase of each injection were used to compare the extent of binding of the modified Fc to wild type value and are reported in Table 17 below.

[6] = target: T5, Fc gamma receptor RIIB/C (human, UniProt P31994 46-217); assay: as above
T5 construct: soluble SPR analyte
T5 sequence (looked up): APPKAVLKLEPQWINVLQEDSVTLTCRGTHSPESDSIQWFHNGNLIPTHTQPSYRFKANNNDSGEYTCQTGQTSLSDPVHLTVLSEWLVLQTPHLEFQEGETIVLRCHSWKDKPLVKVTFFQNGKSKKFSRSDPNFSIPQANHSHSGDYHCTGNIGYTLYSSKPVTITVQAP
Method: as §1

[7] = target: T6, Fc gamma receptor RIIA H167 (human, UniProt P12318 36-218); assay: as above
T6 construct: soluble SPR analyte
T6 sequence (looked up): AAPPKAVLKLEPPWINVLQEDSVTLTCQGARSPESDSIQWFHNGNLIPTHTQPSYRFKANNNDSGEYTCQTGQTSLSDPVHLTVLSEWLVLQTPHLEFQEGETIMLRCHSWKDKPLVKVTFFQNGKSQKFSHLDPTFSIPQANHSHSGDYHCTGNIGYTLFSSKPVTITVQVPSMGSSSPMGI
Method: as §1
Wherever 4-1BB Reporter Assay Max induction is given: unit not given here.
Wherever OX40 Reporter Assay Max induction is given: unit not given here.

Sequence of Full-length Human 4-1BB (Q07011 24-255): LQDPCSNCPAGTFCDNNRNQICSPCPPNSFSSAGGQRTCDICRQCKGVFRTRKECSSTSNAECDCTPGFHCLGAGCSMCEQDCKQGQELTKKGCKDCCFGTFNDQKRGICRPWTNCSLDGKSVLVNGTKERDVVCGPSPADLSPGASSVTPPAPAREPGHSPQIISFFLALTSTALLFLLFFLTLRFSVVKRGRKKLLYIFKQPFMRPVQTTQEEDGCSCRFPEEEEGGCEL

B1: FXX01066 (bispecific antibody)
chain: EVQLVQSGAEVKKPGASVKVSCKASGYTFTSYWMNWVRQAPGQGLEWMGNIYPSGGSTNYAQKFQGRVTMTVDTSTSTVYMELSSLRSEDTAVYYCASFSDGYYAYAMDYWGQGTLVTVSSGGGGSGGGGSGGGGSGGGGSEIVMTQSPATLSLSPGERATLSCRASQSVSSYLNWYQQKPGQAPRLLIYYASRRHTGIPARFSGSGSGTDFTLTISSLQPEDFAVYYCQQGYNLPYTFGQGTKVEIKEPKSSDKTHTCPPCPAPPAAAPSVFLFPPKPKDTLMISRTPEVTCVVVDVSHEDPEVKFNWYVDGVEVHNAKTKPREEQYNSTYRVVSVLTVLHQDWLNGKEYKCAVSNKALPAPIEKTISKAKGQPREPQVYTLPPSRDELTKNQVSLTCLVKGFYPSDIAVEWESNGQPENNYKTTPPVLDSDGSFFLYSKLTVDKSRWQQGNVFSCSVMHEALHNHYTQKSLSLSPGGGGSPSSYVLTQPPSVSVAPGQTARITCGGNNIGSKSVNWFQQKPGQAPVLVVYDDSGRPSGIPERFSGSTSGNTATLTISRVEAGDEADYYCQVWDSSSDHVVFGGGTKLTVLGGGGSGGGGSGGGGSGGGGSQVQLVESGGGVVQPGRSLRLSCAASGFTLSYYGMHWVRQAPGKGLEWVAAISHDGSDKYYADSVKGRFTISRDNSKNTLYLQMNSLRAEDTAVYYCSNDQFDPWGQGTLVTVSSR
notes: ADAPTIR scFv-Fc-scFv, anti-4-1BB (VH-VL) N-terminal, anti-OX40 C-terminal, PAA (del) Fc; also called FX01066
- 4-1BB Reporter Assay EC50 [1]: 0.017 nM
- 4-1BB Reporter Assay Max induction [1]: 1.37e+06
- OX40 Reporter Assay EC50 [2]: 0.021 nM
- OX40 Reporter Assay Max induction [2]: 5.86e+06
- Kd [3]: 16 nM
- koff [3]: 0.0043 s⁻¹
- kon [3]: 270000 M⁻¹ s⁻¹
- EC50 (read off the curve) [4]: ~2 nM
- Max RU value during association [5]: 92 RU
- Max RU value during association [6]: 21 RU
- Max RU value during association [7]: 14 RU

B2: FXX01102 (bispecific antibody)
chain: EVQLVQSGAEVKKPGASVKVSCKASGYTFTSYWMNWVRQAPGQGLEWMGNIYPSGGSTNYAQKFQGRVTMTVDTSTSTVYMELSSLRSEDTAVYYCASFSDGYYAYAMDYWGQGTLVTVSSGGGGSGGGGSGGGGSGGGGSEIVMTQSPATLSLSPGERATLSCRASQSVSSYLNWYQQKPGQAPRLLIYYASRRHTGIPARFSGSGSGTDFTLTISSLQPEDFAVYYCQQGYNLPYTFGQGTKVEIKEPKSSDKTHTCPPCPAPPAAAPSVFLFPPKPKDTLMISRTPEVTCVVVDVSHEDPEVKFNWYVDGVEVHNAKTKPREEQYNSTYRVVSVLTVLHQDWLNGKEYKCAVSNKALPAPIEKTISKAKGQPREPQVYTLPPSRDELTKNQVSLTCLVKGFYPSDIAVEWESNGQPENNYKTTPPVLDSDGSFFLYSKLTVDKSRWQQGNVFSCSVMHEALHNHYTQKSLSLSPGGGGSPSSYVLTQPPSVSVAPGKTARITCGGNNIGSKSVNWFQQKPGQAPVLVVYDDSGRPSGIPERFSGSTSGNTATLTISRVEAGDEADYYCQVWDSSSDHVVFGGGTKLTVLGGGGSGGGGSGGGGSGGGGSQVQLVESGGGVVQPGRSLRLSCAASGFTLSYYGMHWVRQAPGKGLEWVAAISHDGSDKYYADSVKGRFTISRDNSKNRLYLQMNSLRAEDTAVYYCSNDQFDPWGQGTLVTVSSR
notes: ADAPTIR anti-4-1BB (HL) x anti-OX40 with Q17K and T86R; PAA (del) Fc; also called FX01102
- 4-1BB Reporter Assay EC50 [1]: 0.021 nM
- 4-1BB Reporter Assay Max induction [1]: 1.4e+06
- OX40 Reporter Assay EC50 [2]: 0.016 nM
- OX40 Reporter Assay Max induction [2]: 5.78e+06
- Kd [3]: 16 nM
- koff [3]: 0.0047 s⁻¹
- kon [3]: 290000 M⁻¹ s⁻¹
- EC50 (read off the curve) [4]: 1 to 2 nM
- Max RU value during association [5]: 88 RU
- Max RU value during association [6]: 19 RU
- Max RU value during association [7]: 13 RU

B3: FXX01111 (bispecific antibody)
chain: EVQLVQSGAEVKKPGASVKVSCKASGYTFTSYWMNWVRQAPGQGLEWMGNIYPSGGSTNYAQKFQGRVTMTVDTSTSTVYMELSSLRSEDTAVYYCASFSDGYYAYAMDYWGQGTLVTVSSGGGGSGGGGSGGGGSGGGGSEIVMTQSPATLSLSPGERATLSCRASQSVSSYLNWYQQKPGQAPRLLIYYASRRHTGIPARFSGSGSGTDFTLTISSLQPEDFAVYYCQQGYNLPYTFGQGTKVEIKEPKSSDKTHTCPPCPAPPAAAPSVFLFPPKPKDTLMISRTPEVTCVVVDVSHEDPEVKFNWYVDGVEVHNAKTKPREEQYNSTYRVVSVLTVLHQDWLNGKEYKCAVSNKALPAPIEKTISKAKGQPREPQVYTLPPSRDELTKNQVSLTCLVKGFYPSDIAVEWESNGQPENNYKTTPPVLDSDGSFFLYSKLTVDKSRWQQGNVFSCSVMHEALHNHYTQKSLSLSPGGGGSPSSYVLTQPPSVSVAPGQTARITCGGNNIGSKSVNWFQQKPGQAPVLVVYDDSGRPSGVPNRFSGSTSGNTATLTISRVEAGDEADYYCQVWDSSSDHVVFGGGTKLTVLGGGGSGGGGSGGGGSGGGGSQVQLVESGGGVVQPGRSLRLSCAASGFTLSYYGMHWVRQAPGKGLEWVAAISHDGSDKYYADSVKGRFTISRDNSKNTLYLQMNSLRAEDTAVYYCSNDQFDPWGQGTLVTVSSR
notes: ADAPTIR anti-4-1BB x anti-OX40, pI variant; PAA (del) Fc
- 4-1BB Reporter Assay EC50 [1]: 0.019 nM
- 4-1BB Reporter Assay Max induction [1]: 1.43e+06
- OX40 Reporter Assay EC50 [2]: 0.017 nM
- OX40 Reporter Assay Max induction [2]: 6.09e+06
- Kd [3]: 17 nM
- koff [3]: 0.0045 s⁻¹
- kon [3]: 270000 M⁻¹ s⁻¹
- EC50 (read off the curve) [4]: 1 to 2 nM
- Max RU value during association [5]: 86 RU
- Max RU value during association [6]: 20 RU
- Max RU value during association [7]: 13 RU

B4: FXX01101 (bispecific antibody)
chain: EVQLVQSGAEVKKPGASVKVSCKASGYTFTSYWMNWVRQAPGQGLEWMGNIYPSGGSTNYAQKFQGRVTMTVDTSTSTVYMELSSLRSEDTAVYYCASFSDGYYAYAMDYWGQGTLVTVSSGGGGSGGGGSGGGGSGGGGSEIVMTQSPATLSLSPGERATLSCRASQSVSSYLNWYQQKPGQAPRLLIYYASRRHTGIPARFSGSGSGTDFTLTISSLQPEDFAVYYCQQGYNLPYTFGQGTKVEIKEPKSSDKTHTCPPCPAPPAAAPSVFLFPPKPKDTLMISRTPEVTCVVVDVSHEDPEVKFNWYVDGVEVHNAKTKPREEQYNSTYRVVSVLTVLHQDWLNGKEYKCAVSNKALPAPIEKTISKAKGQPREPQVYTLPPSRDELTKNQVSLTCLVKGFYPSDIAVEWESNGQPENNYKTTPPVLDSDGSFFLYSKLTVDKSRWQQGNVFSCSVMHEALHNHYTQKSLSLSPGGGGSPSSYVLTQPPSVSVAPGQTARITCGGNNIGSKSVNWFQQKPGQAPVLVVYDDSGRPSGIPERFSGSTSGNTATLTISRVEAGDEADYYCQVWDSSSDHVVFGGGTKLTVLGGGGSGGGGSGGGGSGGGGSQVQLVESGGGVVQPGRSLRLSCAASGFTLSYYGMHWVRQAPGKGLEWVAAISHDGSDKYYADSVKGRFTISRDNSKNRLYLQMNSLRAEDTAVYYCSNDQFDPWGQGTLVTVSSR
notes: ADAPTIR anti-4-1BB (HL) x anti-OX40 with T86R; PAA (del) Fc; also called FX01101
- 4-1BB Reporter Assay EC50 [1]: 0.018 nM
- 4-1BB Reporter Assay Max induction [1]: 1.44e+06
- OX40 Reporter Assay EC50 [2]: 0.017 nM
- OX40 Reporter Assay Max induction [2]: 5.89e+06
- Kd [3]: 17 nM
- koff [3]: 0.0046 s⁻¹
- kon [3]: 270000 M⁻¹ s⁻¹
- EC50 (read off the curve) [4]: 1 to 2 nM
- Max RU value during association [5]: 94 RU
- Max RU value during association [6]: 21 RU
- Max RU value during association [7]: 14 RU
